# Numbering of substitutions follows the chain as printed. Read-outs that look alike come from different tables or passages of the source.
# B1: can9L12VH_K98A (antibody, V domains shown)
# VH: EVQLVESGGDLVKPGGSLRLSCVASGFTFSSHGMHWVRQSPGKGLQWVAVINSGGSSTYYTDAVKGRFTISRDNAKNTVYLQMNSLRAEDTAMYYCAAESVGGWEQLVGPHFDYWGQGTLVIVSS
# VL: QSVLTQPTSVSGSLGQRVTISCSGSTNNIGILGASWYQLFPGKAPKLLVYGNGNRPSGVPDRFSGADSGDSVTLTITGLQAEDEADYYCQSFDTTLGAHVFGGGTHLTVL
# B2: can9L12VH_F112A (antibody, V domains shown)
# VH: B1 VH with A98K, F112A
# VL: B1 VL
# B3: ZTS-841 (antibody, V domains shown)
# VH: B1 VH with A98K
# VL: B1 VL
# B4: can9L12VH_V101A (antibody, V domains shown)
# VH: B1 VH with A98K, V101A
# VL: B1 VL
# B5: can9L12VH_W104A (antibody, V domains shown)
# VH: B1 VH with A98K, W104A
# VL: B1 VL
# B6: ZTS-842 (antibody, V domains shown)
# VH: EVQLVESGGDLVKPGGSLRLSCVASGFTFSTYGINWVRQAPGKGLQWVAYISSGGSSTYYADPVKGRFTISRDDAKNMLYLQMNSLRAEDTAIYYCAGSRYTYAYGGGYEFHFWGQGTLVTVSS
# VL: QAVLNQPASVSGALGQKVTISCSGSTMDIDIFGVSWYQQLPGKAPKLLVDSDGDRPSGIPDRFSGSRSGNSGTLTITGLQAEDEADYHCQSGDSTLGALAIFGGGTHVTVL
# B7: fel48L2 1.1 (antibody, V domains shown)
# VH: B6 VH with E1D, S21T, D74N, S85N, R87K, A88T, I93T
# VL: QAVLNQPSSVSGALGQRVTISCSGSTMDIDIFGVSWYQQIPGMAPKTIIDSDGDRPSGVPDRFSGSKSGSTGTLTITGLQAEDEADYYCQSGDSTLGALAIFGGGTHVTVLG
# How the values were obtained:
# human NGF (human) = human NGF (human) (UniProt P01138); test: SPR (Biacore T200), 100 nM mAb on NGF chip, vs parent mAb
# rat NGF (rat) = rat NGF (rat) (UniProt P25427); test: as above
# canine NGF [1] = target: T1, canine NGF (canine, UniProt Q29074 110-229 (pig entry), limits assumed); test: cell-based or functional assay
# T1 chain: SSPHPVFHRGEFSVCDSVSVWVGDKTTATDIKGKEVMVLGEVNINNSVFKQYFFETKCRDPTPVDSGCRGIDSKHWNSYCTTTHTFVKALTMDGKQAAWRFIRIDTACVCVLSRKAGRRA
# canine NGF [2] = target: T1, canine NGF; test: cell-based or functional assay
# canine NGF [3] = target: T1, canine NGF; test: cell-based or functional assay
# human NGF (human), sequence (P01138 other isoform, or with tags, fused parts or gaps limits assumed): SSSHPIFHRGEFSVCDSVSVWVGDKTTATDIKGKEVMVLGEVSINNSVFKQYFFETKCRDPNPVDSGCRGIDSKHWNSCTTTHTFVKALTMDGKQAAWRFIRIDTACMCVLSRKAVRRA
# rat NGF (rat), sequence (P25427 122-241 limits assumed): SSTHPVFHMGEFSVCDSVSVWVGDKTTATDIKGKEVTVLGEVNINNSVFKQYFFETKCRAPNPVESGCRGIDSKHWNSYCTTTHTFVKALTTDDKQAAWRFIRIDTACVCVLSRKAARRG
binder,measurement,setting,value
B1,Percent Similarity Score (%),human NGF (human),8.58%
same,Percent Similarity Score (%),rat NGF (rat),7.92%
B2,Percent Similarity Score (%),human NGF (human),8%
B3,"IC50 (read off the curve), canine NGF-induced pERK-1/2 in caTrkA-CHO cells",canine NGF [1],~0.2 µg/ml
same,"IC50 (read off the curve), canine NGF-induced TF-1 cell proliferation",canine NGF [2],~8 ng/mL
B4,Percent Similarity Score (%),human NGF (human),5.29%
B5,Percent Similarity Score (%),rat NGF (rat),8.2%
B6,"IC50 (read off the curve), canine NGF-induced pERK-1/2 in caTrkA-CHO cells",canine NGF [1],~0.1 µg/ml
same,"IC50 (read off the curve), canine NGF-induced TF-1 cell proliferation",canine NGF [2],~5 ng/mL
B7,"IC50 (read off the curve), canine NGF-induced TF-1 cell proliferation",canine NGF [3],~7 ng/mL

# From patent publication US20210214449A1 (ZOETIS SERVICES, published 2021)
